These results are taken from publication PMC3474754.

The target of this assay is full-length uncleaved Reelin (FL-Reelin) (UniProt Q60841). As to the kind of experiment: cross-linking; BS3 cross-linker, 30 minutes on ice, on FL- or C-cleaved Reelin in conditioned medium; anti-Reelin (G10) immunoblot.

In turn, “full-length uncleaved Reelin (FL-Reelin), Q60841 27-3461” registered a stoichiometry N of 2.
